The text below walks through data of publication PMC12888920, “MMP-9 regulates disulphide isomerase activity of TGM2 to enhance fusion glycoprotein-mediated syncytium formation of respiratory syncytial virus” (Protein & Cell, 2025).

The target of one assay is RSV F protein (DS-Cav1). The experiment in a line: Biolayer interferometry, MMP-9 binding to RSV F protein (DS-Cav1). Also noted: species or system Respiratory syncytial virus. To be noted: BLI, DS-Cav1 immobilized; read-out: dissociation constant (KD), MMP-9 to RSV F. Here is the method:
Figure 4. MMP-9 interacts with RSV F protein. (A) MMP-9–F protein interaction analysis. HEK293T cells co-transfected with MMP-9 and RSV F plasmids (48 h) were subjected to co-immunoprecipitation (Co-IP) using anti-F, anti-MMP-9, or IgG control antibodies, followed by immunoblotting with indicated probes. Blots represent three independent experiments. (B) Binding affinity quantification. Biolayer interferometry (BLI) assays using ForteBio Octet measured DS-Cav1 (RSV F prefusion conformation) and MMP-9 interactions. The results represent three biological replicates. (C) Subcellular co-localization. Confocal microscopy of HEp-2 cells transfected with MMP-9 (24 h) ± RSV A2 infection (MOI = 1, 72 hpi). Nuclei (DAPI), MMP-9, and RSV F signals are shown. Scale bar: 20 µm. Images represent three biological replicates. (D) No effect on F protein proteolytic processing. Western blot of RSV F cleavage status in HEK293T cells co-expressing MMP-9 (100–500 ng) and RSV F (500 ng) for 48 h. β-Actin served as loading control. Blots represent three independent experiments. […] They were left out and are not reliably readable. […]
(§1) 271 TGM2) were quantified using a Sartorius Octet R4 system. […]
(§2) 275 equilibration. MMP-9 (MCE) binding was assessed across two concentration ranges: […]
(§3) 281 (Sartorius) at 20 µg/mL. TGM2 binding was evaluated across 0 –100 µM (7 […]
Background: In BLI a coated tip is dipped into the sample, and binding shifts an interference pattern.

Another assay addresses T1, TGM2 (Homo sapiens, UniProt P21980).
T1 construct: His tag (inferred from capture on anti-penta-HIS biosensors); purchased MCE (MedChemExpress)
T1 sequence (P21980 1-687): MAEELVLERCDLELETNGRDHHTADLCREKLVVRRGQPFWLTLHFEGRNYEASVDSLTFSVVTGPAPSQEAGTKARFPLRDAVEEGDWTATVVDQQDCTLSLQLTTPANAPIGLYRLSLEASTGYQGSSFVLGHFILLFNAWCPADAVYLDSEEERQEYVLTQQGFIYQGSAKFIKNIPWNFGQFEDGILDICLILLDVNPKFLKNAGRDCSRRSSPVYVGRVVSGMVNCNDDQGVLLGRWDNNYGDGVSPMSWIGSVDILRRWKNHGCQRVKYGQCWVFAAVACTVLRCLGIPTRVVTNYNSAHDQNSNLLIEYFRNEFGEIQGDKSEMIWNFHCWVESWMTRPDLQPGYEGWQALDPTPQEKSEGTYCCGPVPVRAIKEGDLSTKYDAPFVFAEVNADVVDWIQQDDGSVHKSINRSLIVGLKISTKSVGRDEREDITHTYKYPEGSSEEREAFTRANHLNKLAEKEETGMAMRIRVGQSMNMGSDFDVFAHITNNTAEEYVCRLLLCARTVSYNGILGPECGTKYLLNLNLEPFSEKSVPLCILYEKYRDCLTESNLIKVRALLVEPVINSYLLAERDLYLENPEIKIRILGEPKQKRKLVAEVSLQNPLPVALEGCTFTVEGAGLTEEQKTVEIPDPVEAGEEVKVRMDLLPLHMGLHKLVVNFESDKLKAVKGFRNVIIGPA
Description: Biolayer interferometry, MMP-9 binding to TGM2. To be noted: BLI, purified human proteins, TGM2 immobilized; read-out: dissociation constant (KD), MMP-9 to TGM2. The protocol: Figure 6. MMP-9 cleaves TGM2 to potentiate RSV infection. (A) MMP-9–TGM2 interaction. […] Blots represent three independent experiments. (D) Infection-enhanced cleavage. MMP-9-dependent TGM2 proteolysis in HEp-2 cells transfected with HA-TGM2 and siMMP-9, followed by RSV A2 infection (MOI = 1, 72 hpi). TGM2 fragment band intensity was quantified by ImageJ software (gray values). Blots represent three independent experiments. (E) Enzymatic validation. MMP-9 proteolytic activity was measured using fluorogenic substrate Mca-PLGL-Dpa-AR-NH2. The results represent three biological replicates. (F) In vitro cleavage assay. Recombinant TGM2 (2 µg) was incubated with APMA-activated MMP-9 (0.2 µg) for 18 h (37°C, pH 7.5). Cleavage products resolved by SDS-PAGE (10%). Arrows indicate proteolytic fragments. The results represent three biological replicates. (G) Functional rescue. Viral titers (FFA) in HEp-2 cells overexpressing MMP-9, TGM2, or cleavage-resistant mutant (TGM2-P375A) post RSV infection (MOI = 1, 72 hpi). mean ± SD, n = 3. (H) Syncytium rescue. Syncytia area quantification in MMP-9/TGM2-modulated cells (ImageJ software). mean ± SD, n = 3. […]
as §1, §2, §3

B1: MMP-9: recombinant matrix metalloproteinase 9 protein used as analyte in BLI (protein)
chain: APRQRQSTLVLFPGDLRTNLTDRQLAEEYLYRYGYTRVAEMRGESKSLGPALLLLQKQLSLPETGELDSATLKAMRTPRCGVPDLGRFQTFEGDLKWHHHNITYWIQNYSEDLPRAVIDDAFARAFALWSAVTPLTFTRVYSRDADIVIQFGVAEHGDGYPFDGKDGLLAHAFPPGPGIQGDAHFDDDELWSLGKGVVVPTRFGNADGAACHFPFIFEGRSYSACTTDGRSDGLPWCSTTANYDTDDRFGFCPSERLYTQDGNADGKPCQFPFIFQGQSYSACTTDGRSDGYRWCATTANYDRDKLFGFCPTRADSTVMGGNSAGELCVFPFTFLGKEYSTCTSEGRGDGRLWCATTSNFDSDKKWGFCPDQGYSLFLVAAHEFGHALGLDHSSVPEALMYPMYRFTEGPPLHKDDVNGIRHLYGPRPEPEPRPPTTTTPQPTAPPTVCPTGPPTVHPSERPTAGPTGPPSAGPTGPPTAGPSTATTVPLSPVDDACNVNIFDAIAEIGNQLYLFKDGKYWRFSEGRGSRPQGPFLIADKWPALPRKLDSVFEERLSKKLFFFSGRQVWVYTGASVLGPRRLDKLGLGADVAQVTGALRSGRGKMLLFSGRRLWRFDVKAQMVDPRSASEVDRMFPGVPLDTHDVFQYREKAYFCQDRFYWRVSSRSELNQVDQVGYVTYDILQCPED
What is called Kd is the constant that tells how readily two partners part at equilibrium. With B1, the values for the dissociation constant Kd at RSV F protein (DS-Cav1) and with TGM2 were 146 nM and 1980 nM, respectively.
